In paper PMC5778112:

Legend:
[1] = biological target: VLA-4 (α4β1, CD49d/CD29) (human (endogenous in Jurkat and primary human CD4+ T cells)) (UniProt P13612)
[2] = biological target: VLA-4 (α4β1, CD49d/CD29) (human (endogenous in Jurkat and primary human CD4+ T cells)) (UniProt P13612); remark: listed apart in the source

Sequence of UniProt P13612 (P13612 34-1032, chain 1 of 2): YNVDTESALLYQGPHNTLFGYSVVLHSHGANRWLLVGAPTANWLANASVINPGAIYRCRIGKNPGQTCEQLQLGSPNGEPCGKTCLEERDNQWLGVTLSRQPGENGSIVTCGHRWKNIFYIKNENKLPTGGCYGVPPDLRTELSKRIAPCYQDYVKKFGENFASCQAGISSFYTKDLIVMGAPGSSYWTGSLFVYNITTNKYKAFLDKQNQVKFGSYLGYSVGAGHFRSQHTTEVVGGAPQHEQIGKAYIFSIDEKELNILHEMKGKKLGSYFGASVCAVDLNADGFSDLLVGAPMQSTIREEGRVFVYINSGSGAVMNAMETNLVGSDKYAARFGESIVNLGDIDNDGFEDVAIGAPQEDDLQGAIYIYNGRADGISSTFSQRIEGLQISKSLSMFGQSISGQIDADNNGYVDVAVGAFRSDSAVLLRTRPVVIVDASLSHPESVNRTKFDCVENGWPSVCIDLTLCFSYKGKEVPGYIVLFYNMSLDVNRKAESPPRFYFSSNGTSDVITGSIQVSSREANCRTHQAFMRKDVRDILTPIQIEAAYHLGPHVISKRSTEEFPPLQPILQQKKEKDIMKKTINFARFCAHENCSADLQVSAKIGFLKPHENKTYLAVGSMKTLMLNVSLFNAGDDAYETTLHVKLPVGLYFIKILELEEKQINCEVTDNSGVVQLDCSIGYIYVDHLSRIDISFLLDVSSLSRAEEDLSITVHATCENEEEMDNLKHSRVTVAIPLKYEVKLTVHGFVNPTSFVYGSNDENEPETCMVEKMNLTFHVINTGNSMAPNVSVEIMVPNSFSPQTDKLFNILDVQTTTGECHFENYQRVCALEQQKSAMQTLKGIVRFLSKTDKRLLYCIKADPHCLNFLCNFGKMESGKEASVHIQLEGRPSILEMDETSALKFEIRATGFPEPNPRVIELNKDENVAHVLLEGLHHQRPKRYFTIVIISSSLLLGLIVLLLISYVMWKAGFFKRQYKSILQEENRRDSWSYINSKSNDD
Sequence of UniProt P13612 (P05556 21-798, chain 2 of 2, further chain): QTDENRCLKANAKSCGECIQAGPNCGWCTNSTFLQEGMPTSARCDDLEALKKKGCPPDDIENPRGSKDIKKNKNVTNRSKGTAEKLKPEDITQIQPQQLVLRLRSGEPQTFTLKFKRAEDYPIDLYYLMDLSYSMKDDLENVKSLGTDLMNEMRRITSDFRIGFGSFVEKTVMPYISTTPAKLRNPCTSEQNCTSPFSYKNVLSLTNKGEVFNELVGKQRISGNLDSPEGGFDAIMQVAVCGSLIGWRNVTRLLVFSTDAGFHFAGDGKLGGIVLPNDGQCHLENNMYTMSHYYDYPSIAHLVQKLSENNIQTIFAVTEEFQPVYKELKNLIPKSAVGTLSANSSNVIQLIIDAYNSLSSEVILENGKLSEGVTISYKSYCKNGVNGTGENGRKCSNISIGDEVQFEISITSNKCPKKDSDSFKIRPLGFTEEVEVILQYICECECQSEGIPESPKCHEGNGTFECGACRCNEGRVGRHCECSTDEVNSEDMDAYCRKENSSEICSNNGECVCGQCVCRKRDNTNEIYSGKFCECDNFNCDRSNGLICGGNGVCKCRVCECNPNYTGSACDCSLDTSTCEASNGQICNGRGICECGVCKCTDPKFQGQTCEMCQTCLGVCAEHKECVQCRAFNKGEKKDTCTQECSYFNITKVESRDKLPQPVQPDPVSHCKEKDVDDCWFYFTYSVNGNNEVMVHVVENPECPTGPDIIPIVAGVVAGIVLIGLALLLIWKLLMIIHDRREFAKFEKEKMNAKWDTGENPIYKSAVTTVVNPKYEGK

Row | actin flow rate in the lamellipodial region of Jurkat T cells (GFP-actin) spreading on coverslips coated with anti-CD3 + VCAM-1 (85–95 nm/s on anti-CD3 alone) [1] [nm/s] | actin flow rate in the lamellipodial region of Jurkat T cells on supported lipid bilayers with mobile anti-CD3 + VCAM-1 [2] [nm/s] | Binder
1 | 15 | – | human VCAM-1-Fc chimera (Fc fusion, labeled with AF-647 for patterning) FKIETTPESRYLAQIGDSVSLTCSTTGCESPFFSWRTQIDSPLNGKVTNEGTTSTLTMNPVSFGNEHSYLCTATCESRKLEKGIQVEIYSFPKDPEIHLSGPLEAGKPITVKCSVADVYPFDRLEIDLLKGDHLMKSQEFLEDADRKSLETKSLEVTFTPVIEDIGKVLVCRAKLHIDEMDSVPTVRQAVKELQVYISPKNTVISVNPSTKLQEGGSVTMTCSSEGLPAPEIFWSKKLDNGNLQHLSGNATLTLIAMRMEDSGIYVCEGVNLIGKNRKEVELIVQEKPFTVEISPGPRIAAQIGDSVMLTCSVMGCESPSFSWRTQIDSPLSGKVRSEGTNSTLTLSPVSFENEHSYLCTVTCGHKKLEKGIQVELYSFPRDPEIEMSGGLVNGSSVTVSCKVPSVYPLDRLEIELLKGETILENIEFLEDTDMKSLENKSLEMTFIPTIEDTGKALVCQAKLHIDDMEFEPKQRQSTQTLYVNVAPRDTTVLVSPSSILEEGSSVNMTCLSQGFPAPKILWSRQLPNGELQPLSENATLTLISTKMEDSGVYLCEGINQAGRSRKEVELIIQVTPKDIKLTAFPSESVKEGDTVIISCTCGNVPETWIILKKKAETGDTVLKSIDGAYTIRKAQLKDAGVYECESKNKVGSQLRSLTLDVQGRENNKDYFSPE
2 | – | 60 | His-tagged human VCAM-1 Fc (Fc fusion) FKIETTPESRYLAQIGDSVSLTCSTTGCESPFFSWRTQIDSPLNGKVTNEGTTSTLTMNPVSFGNEHSYLCTATCESRKLEKGIQVEIYSFPKDPEIHLSGPLEAGKPITVKCSVADVYPFDRLEIDLLKGDHLMKSQEFLEDADRKSLETKSLEVTFTPVIEDIGKVLVCRAKLHIDEMDSVPTVRQAVKELQVYISPKNTVISVNPSTKLQEGGSVTMTCSSEGLPAPEIFWSKKLDNGNLQHLSGNATLTLIAMRMEDSGIYVCEGVNLIGKNRKEVELIVQEKPFTVEISPGPRIAAQIGDSVMLTCSVMGCESPSFSWRTQIDSPLSGKVRSEGTNSTLTLSPVSFENEHSYLCTVTCGHKKLEKGIQVELYSFPRDPEIEMSGGLVNGSSVTVSCKVPSVYPLDRLEIELLKGETILENIEFLEDTDMKSLENKSLEMTFIPTIEDTGKALVCQAKLHIDDMEFEPKQRQSTQTLYVNVAPRDTTVLVSPSSILEEGSSVNMTCLSQGFPAPKILWSRQLPNGELQPLSENATLTLISTKMEDSGVYLCEGINQAGRSRKEVELIIQVTPKDIKLTAFPSESVKEGDTVIISCTCGNVPETWIILKKKAETGDTVLKSIDGAYTIRKAQLKDAGVYECESKNKVGSQLRSLTLDVQGRENNKDYFSPE
